Assays:
[1] = molecular target: HepR (MarR family transcription factor, Xcc4167) (Xanthomonas campestris pv. campestris (strain XC1)); experiment: SEC; FPLC gel filtration of Ni-NTA purified His-tagged HepR on Superdex 75; 25 mM HEPES, 150 mM NaCl, pH 7.4
[2] = molecular target: T1, HepR (Xanthomonas campestris, UniProt Q8P3A9); experiment: ITC with purified His-HepR (Kd […]); confirmed by SPR (Kd […]); SA inhibits HepR–Phep binding in EMSA
T1 construct: gene slyA; 147-amino acid protein, His-tagged HepR (pET28a), dimer

Compound | stoichiometry N [1] | Kd [2] [µM]
HepR (MarR family transcription factor, Xcc4167) (natural protein) | 2 | –
O=C(O)c1ccccc1O [SA, Salicylic acid] | – | 19.3

Reference: publication PMC11442134, “The phytopathogen Xanthomonas campestris senses and effluxes salicylic acid via a sensor HepR and an RND family efflux pump to promote virulence in host plants” (mLife, 2024)
